The target of the assay is T1, Flag3-SNAP33-6His (Arabidopsis thaliana, UniProt Q9S7P9 1-300).
T1 construct: Qbc-SNARE SNAP33, Arabidopsis thaliana, At5G61210; not shown: Flag3, N-terminal, kept; 6His, C-terminal, kept
T1 sequence (looked up): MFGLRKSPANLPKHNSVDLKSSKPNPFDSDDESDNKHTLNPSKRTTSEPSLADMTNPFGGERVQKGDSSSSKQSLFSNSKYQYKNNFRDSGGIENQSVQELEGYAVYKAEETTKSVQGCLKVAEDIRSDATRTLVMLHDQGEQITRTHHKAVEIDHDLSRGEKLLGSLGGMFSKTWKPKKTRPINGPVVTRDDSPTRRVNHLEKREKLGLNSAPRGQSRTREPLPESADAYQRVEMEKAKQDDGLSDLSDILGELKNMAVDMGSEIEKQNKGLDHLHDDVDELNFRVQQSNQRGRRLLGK
The assay can be described thus: pull-down; KC1^67–91-Flag3-StrepII or KAT1^1–63-Flag6-StrepII immobilised on Strep-Tactin resin; one prey at a time in 3-fold excess; overnight at 4°C; SDS-PAGE, Coomassie. The settings on record: both partners purified.

B1: KC1^67–91-Flag3-StrepII (domain or fragment, Arabidopsis thaliana, UniProt P92960 67-91, looked up)
chain: IEDDNPSSKPFIVLHFDRRYRLWEL
notes: KC1 K+ channel subunit, Arabidopsis thaliana, At4g32650, N-terminal cytosolic domain residues 67-91; also called KC1^67–91 peptide; KC1^67–91-3flag-StrepII; not shown: Flag3, C-terminal, kept; StrepII, C-terminal, kept
In the case of B1, the binding result is “binds”.

B2: KAT1^1–63-Flag6-StrepII (domain or fragment, Arabidopsis thaliana, UniProt Q39128 1-63, looked up)
chain: MSISWTRNFFERFCVEEYNIDTIKQSSFLSADLLPSLGARINQSTKLRKHIISPFNPRYRAWE
notes: KAT1 K+ channel, Arabidopsis thaliana, At5g46240, N-terminal cytosolic domain residues 1-63; also called KAT1^1–63 peptide; KAT1^1–63-6flag-StrepII; not shown: Flag6, C-terminal, kept; StrepII, C-terminal, kept
B2: the binding result is reported as “binds”.

The record behind these values is PMC6836825, “K^+ Channel-SEC11 Binding Exchange Regulates SNARE Assembly for Secretory Traffic^1” (Plant Physiology, 2019).
